Measurements reported in publication PMC4139326, “Functional Roles of the Dimer-Interface Residues in Human Ornithine Decarboxylase” (PLoS ONE, 2014).
Positions count from the first letter of the chain named. Read-outs that look alike come from different tables or passages of the source.

Key:
[1] = target: ornithine decarboxylase (Homo sapiens) (UniProt P11926); conditions: cited from earlier work
[2] = target: antizyme inhibitor (Homo sapiens) (UniProt O14977); conditions: cited from earlier work
[3] = target: antizyme inhibitor (Homo sapiens) (UniProt O14977); conditions: cited from earlier work; remark: listed apart in the source
[4] = target: ornithine decarboxylase (Homo sapiens) (UniProt P11926); conditions: cited from earlier work; remark: listed apart in the source
[5] = target: T1, human antizyme inhibitor (human), O14977; assay: AUC; sedimentation velocity, 0.3, 0.6 and 0.9 mg/ml protein in 50 mM Tris-HCl pH 7.5, 293 K, 42,000 rpm; global fit to a monomer-dimer equilibrium model (SEDPHAT); dimer to monomers; conditions: remark: other sources report otherwise
T1 chain: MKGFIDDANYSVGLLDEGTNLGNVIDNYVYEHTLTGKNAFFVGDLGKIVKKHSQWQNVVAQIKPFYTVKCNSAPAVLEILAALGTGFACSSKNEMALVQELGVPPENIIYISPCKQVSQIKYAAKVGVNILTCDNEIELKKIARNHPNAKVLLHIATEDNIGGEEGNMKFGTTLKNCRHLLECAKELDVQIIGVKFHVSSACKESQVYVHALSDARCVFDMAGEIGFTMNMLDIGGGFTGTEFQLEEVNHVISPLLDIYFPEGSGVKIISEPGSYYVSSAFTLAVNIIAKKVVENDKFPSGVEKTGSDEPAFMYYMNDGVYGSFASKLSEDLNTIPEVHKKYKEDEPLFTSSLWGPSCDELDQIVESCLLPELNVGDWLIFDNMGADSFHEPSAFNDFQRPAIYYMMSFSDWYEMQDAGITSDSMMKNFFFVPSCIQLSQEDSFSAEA

[6] = target: the molecule itself; assay: as above

Chain of ornithine decarboxylase (Homo sapiens) (P11926 whole entry): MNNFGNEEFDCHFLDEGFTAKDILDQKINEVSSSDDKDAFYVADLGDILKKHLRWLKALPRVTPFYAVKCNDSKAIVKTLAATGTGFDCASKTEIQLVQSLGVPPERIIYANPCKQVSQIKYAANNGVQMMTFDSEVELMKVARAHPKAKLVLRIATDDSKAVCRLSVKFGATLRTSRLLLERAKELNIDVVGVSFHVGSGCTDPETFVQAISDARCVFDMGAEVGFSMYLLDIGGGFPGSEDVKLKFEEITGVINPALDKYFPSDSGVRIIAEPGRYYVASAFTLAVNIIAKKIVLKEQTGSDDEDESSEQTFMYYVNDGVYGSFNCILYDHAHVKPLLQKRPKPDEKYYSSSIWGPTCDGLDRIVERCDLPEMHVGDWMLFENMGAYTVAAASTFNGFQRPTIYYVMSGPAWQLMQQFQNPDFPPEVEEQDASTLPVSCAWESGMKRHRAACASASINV

Question: With antizyme (from UniProt P54368) as the molecule, how does the Kd [1] read?
Answer: 200 nM

Question: And the Kd [2]?
Answer: 20 nM

Question: With “antizyme inhibitor (from UniProt O14977)” as the molecule, how does the Kd [3] read?
Answer: 84000 nM

Question: Which Kd [4] does the source give for “ornithine decarboxylase (from UniProt P11926)” here?
Answer: 180 nM

B1: human antizyme inhibitor, O14977 1-448 (natural protein)
chain: T1 chain
Question: With B1 as the molecule, how does the Kd [5] read?
Answer: 72300 nM

B2: human ornithine decarboxylase K169A (enzyme)
chain: EEFDCHFLDEGFTAKDILDQKINEVSSSDDKDAFYVADLGDILKKHLRWLKALPRVTPFYAVKCNDSKAIVKTLAATGTGFDCASKTEIQLVQSLGVPPERIIYANPCKQVSQIKYAANNGVQMMTFDSEVELMKVARAHPKAKLVLRIATDDSKAVCRLSVAFGATLRTSRLLLERAKELNIDVVGVSFHVGSGCTDPETFVQAISDARCVFDMGAEVGFSMYLLDIGGGFPGSEDVKLKFEEITGVINPALDKYFPSDSGVRIIAEPGRYYVASAFTLAVNIIAKKIVLKEQTGSDDEDESSEQTFMYYVNDGVYGSFNCILYDHAHVKPLLQKRPKPDEKYYSSSIWGPTCDGLDRIVERCDLPEMHVGDWMLFENMGAYTVAAASTFNGFQRPTIYYVMSGPAWQLMQQFQNPDFPP
notes: ornithine decarboxylase (ODC), human; cDNA cloned into pQE30
Question: For B2, which Kd [6] is on record?
Answer: 300 ± 8 nM

B3: human ornithine decarboxylase Y331S (enzyme)
chain: B2 chain with A163K, Y325S
notes: as for B2
Question: For B3, which Kd [6] is on record?
Answer: 1100 ± 8 nM

B4: human ornithine decarboxylase R277S (enzyme)
chain: B2 chain with A163K, R271S
notes: as for B2
Question: With B4 as the molecule, how does the Kd [6] read?
Answer: 80 ± 6 nM

B5: human ornithine decarboxylase D332E (enzyme)
chain: B2 chain with A163K, D326E
notes: as for B2
Question: With B5 as the molecule, how does the Kd [6] read?
Answer: 30 ± 7 nM

B6: human ornithine decarboxylase K294A (enzyme)
chain: B2 chain with A163K, K288A
notes: as for B2
Question: For B6, which Kd [6] is on record?
Answer: 100 ± 8 nM

B7: human ornithine decarboxylase V322D (enzyme)
chain: B2 chain with A163K, V316D
notes: as for B2
Question: Which Kd [6] does the source give for B7 here?
Answer: 560 ± 12 nM
